Earlier results in paper PMC7830187.

Molecular target: synthetic peptide

Kd: 50 µM
Substance: intersectin-1 SH3 (from UniProt Q15811)
